In publication PMC2923189, “An Oligopeptide Transporter of Mycobacterium tuberculosis Regulates Cytokine Release and Apoptosis of Infected Macrophages” (PLoS ONE, 2010):

Key:
Assay in all cases: radioligand binding
[1] = target: OppAMTB mutant N230G (Mycobacterium tuberculosis) (UniProt P9WGU5)
[2] = target: OppAMTB mutant N110A (Mycobacterium tuberculosis) (UniProt P9WGU5)
[3] = target: OppAMTB mutant F496D (Mycobacterium tuberculosis) (UniProt P9WGU5)
[4] = target: OppAMTB mutant D494N (Mycobacterium tuberculosis) (UniProt P9WGU5)
[5] = target: OppAMTB mutant G109S (Mycobacterium tuberculosis) (UniProt P9WGU5)

Measured: loss of binding activity against wild type

bradykinin (nonapeptide)
> 50%: all assays above

glutathione (tripeptide)
> 50%: all assays above
